One block for each binder: values may come before it.
Key:
[1] = molecular target: recombinant human TNF (hTNF) (human) (UniProt P01375); experiment: cell-based or functional assay; conditions: scale: ratio EC50 ESBA105 / EC50 test, in mass units [ng/ml]
[2] = molecular target: VEGF (as used in the VEGFR competition ELISA); experiment: competition ELISA against hVEGR1, EC50 ratio to reference Luc
[3] = molecular target: recombinant human VEGF165 (PeproTech EC Ltd.) (human) (UniProt P15692); experiment: SPR BIAcore T100, hVEGF165 amine-coupled on CM4 chip, scFv as analyte
Sequence of recombinant human VEGF165 (PeproTech EC Ltd.) (human) (P15692 other isoform, or with tags, fused parts or gaps limits assumed): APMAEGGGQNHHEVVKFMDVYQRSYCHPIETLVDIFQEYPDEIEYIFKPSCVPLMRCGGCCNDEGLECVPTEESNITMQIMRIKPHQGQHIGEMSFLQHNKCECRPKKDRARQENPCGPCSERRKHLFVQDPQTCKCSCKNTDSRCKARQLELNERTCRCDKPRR

Sequence of recombinant human TNF (hTNF) (human) (P01375 77-233 limits assumed): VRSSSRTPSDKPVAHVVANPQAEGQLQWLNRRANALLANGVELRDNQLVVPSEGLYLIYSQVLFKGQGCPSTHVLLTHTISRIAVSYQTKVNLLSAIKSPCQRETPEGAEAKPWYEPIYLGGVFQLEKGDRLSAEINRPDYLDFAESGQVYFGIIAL
Sequence of VEGF (as used in the VEGFR competition ELISA) (P15692 whole entry): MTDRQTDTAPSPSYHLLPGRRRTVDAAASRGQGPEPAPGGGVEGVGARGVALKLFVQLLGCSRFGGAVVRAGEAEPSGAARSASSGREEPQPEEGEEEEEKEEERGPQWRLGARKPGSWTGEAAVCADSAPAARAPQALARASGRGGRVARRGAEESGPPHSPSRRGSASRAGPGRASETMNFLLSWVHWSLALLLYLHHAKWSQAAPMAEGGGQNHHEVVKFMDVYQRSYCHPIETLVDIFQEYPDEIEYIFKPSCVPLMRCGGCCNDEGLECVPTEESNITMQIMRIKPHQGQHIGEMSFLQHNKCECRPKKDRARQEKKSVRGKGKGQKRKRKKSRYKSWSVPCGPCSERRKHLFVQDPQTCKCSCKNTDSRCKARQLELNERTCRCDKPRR

B3: EP15_max (scFv, from another filing)
scFv: EIVMTQSPSTLSASVGDRVIITCQASENIYTSLAWYQQKPGKAPKLLIYSASTLASGVPSRFSGSGSGTEFTLTISSLQPDDFATYYCQQGFATSNVENPFGQGTKLTVLGGGGGSGGGGSGGGGSGGGGSEVQLVESGGGSVQPGGSLRLSCTVSGFSLSRYGVSWVRQAPGKGLEWVGAIGETGRAYYANWAKSRSTISRDTSKNTVYLQMNSLRAEDTATYYCARGEEFNNGWGAFNIWGQGTTVTVSS
L929* [EC50-E105 / EC50-X] [1]: 0.39

B4: EP34_max (scFv, from another filing)
scFv: EIVMTQSPSTLSASLGDRVIITCQSSQSVYGNIWMAWYQQKSGKAPKLLIYQASKLASGVPSRFSGSGSGAEFSLTISSLQPDDFATYYCQGNFNTGDRYAFGQGTKLTVLGGGGGSGGGGSGGGGSGGGGSEVQLVESGGGLVQPGGSLRLSCTASGFTISRSYWICWVRQAPGKGLEWVACIYGDNDITPLYANWAKGRFPVSTDTSKNTVYLQMNSLRAEDTAVYYCARLGYADYAYDLWGQGTLVTVSS
L929* [EC50-E105 / EC50-X] [1]: 10.5

B5: EP6_max (scFv, from another filing)
scFv: EIVMTQSPSTLSASVGDRVIITCQASESIYSGLAWYQQKPGKAPKLLIYQASTLASGVPSRFSGSGSGTDFTLAISSLQPDDFATYYCQQGFGTSNVENPFGQGTKLTVLGGGGGSGGGGSGGGGSGGGGSEVQLVESGGGLVQPGGSLRLSCTVSGFSLSRYGVSWVRQAPGKGLEWVGTIGEAGRAYYANWARSRSTISRDTSKNTVYLQMNSLRAEDTAVYYCARGEVFNNGWGAFNIWGQGTLVTVSS
L929* [EC50-E105 / EC50-X] [1]: 1.1

B6: 509-maxll (scFv, from another filing)
scFv: EIVMTQSPSTLSASVGDRVIITCQASQNIRIWLSWYQQKPGKAPKLLIYKASTLESGVPSRFSGSGSGTEFTLTISSLQPDDFATYYCQNNAHYSTNGGTFGQGTKLTVLGGGGGSGGGGSGGGGSGGGGSEVQLVESGGGLVQPGGSLRLSCTASGFSLSSYYMSWVRQAPGKGLEWVGILDYVGDTDYASWAKGRFTISKDASKNTVYLQMNSLRAEDTAVYYCARTDDSRGWGLNIWGQGTLVTVSS
Rel. activity hVEGR1 comp. ELISA (EC50Luc[nM]/EC50test[nM]) [2]: 0.09
Kd [3]: 3.37 nM
koff [3]: 0.00282 s⁻¹
kon [3]: 838000 M⁻¹ s⁻¹

Further lines, results first:

L929* [EC50-E105 / EC50-X] [1]: 5.2
B1: EP35_max (scFv, from another filing)
scFv: EIVMTQSPSTLSASVGDRVIITCQASQSISNLLAWYQQKPGKAPKLLIVAASKLASGVPSRFSGSGSGTEFTLTISSLQPDDFATYYCQQGWSHTNVDNTFGQGTKLTVLGGGGGSGGGGSGGGGSGGGGSEVQLVESGGGSVQPGGSLRLSCTASGFSFSVGYWICWVRQAPGKGLEWVACIDAGTSGGTYYATWAKGRFTISKDTSKNTVYLQMNSLRAEDTATYYCARGVSSNGYYFKLWGQGTTVTVSS

L929* [EC50-E105 / EC50-X] [1]: 6.4
B2: EP43_max (scFv, from another filing)
scFv: EIVMTQSPSTLSASVGDRVIIKCQASQSISDWLAWYQQKPGKAPKLLIYGASRLASGFPSRFSGSGSGAEFTLTISGLEPADFATYYCQQGWSDSYVDNLFGQGTKLTVLGGGGGSGGGGSGGGGSGGGGSEVQLVESGGGLVQPGGSLRLSCTVSGFSLSSGAMSWVRQAPGKGLEWVGVIISSGATYYASWAKGRFTISKDTSKNTVYLQMNSLRAEDTAVYYCARGGPDDSNSMGTFDPWGQGTLVTVSS
